Experimental data reported in patent US20240092914A1 (NEW PARADIGM BIOSCIENCES USA, published 2024).

T1: recombinant human BDCA2 extracellular domain (UniProt Q8WTT0, residues 45-213) (human, UniProt Q8WTT0 45-213)
T1 construct: range 45-213; also called recombinant BDCA2 proteins; BDCA2 proteins
T1 sequence (looked up): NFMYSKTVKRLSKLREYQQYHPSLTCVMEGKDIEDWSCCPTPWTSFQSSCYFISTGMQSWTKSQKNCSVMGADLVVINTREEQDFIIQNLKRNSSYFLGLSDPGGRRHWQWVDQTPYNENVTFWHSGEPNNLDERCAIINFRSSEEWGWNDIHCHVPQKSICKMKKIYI


Biological target: T1, recombinant human BDCA2 extracellular …
Assay: SPR (Biacore), recombinant BDCA2; large-scale (100 mL) batch
Description: (§1) BDCA2 antibody binding kinetics were measured using a Biacore surface plasmon resonance (SPR) instrument (GE Life Sciences). Briefly, anti-BDCA2 antibodies were captured on an anti-human Fc chip. The recombinant BDCA2 proteins were then flowed over the captured antibodies over a range of concentrations, at a rate of 50 μL/minute. The data was analyzed to determine kinetic constants using the BIAevaluation software package (GE Life Sciences). The sensorgrams of SPR based affinity testing for all 24 antibodies are shown in FIG. 55, and the biophysical characteristics of all 24 antibodies are summarized in Table 5.

Kd | koff | kon | Binder
0.927 nM | 0.000133 s⁻¹ | 144000 M⁻¹ s⁻¹ | NPB-303_A.D (antibody, V domains shown, whole antibody captured by anti-human Fc; Made at small (3 mL) and large (100 mL) scale) VH: EVQLVESGGGLVKPGGSLRLSCAASGFTFSTMSWVRQAPGKRLEWVASISSGGSTYYPDSVKGRFTISRDNAKNSLYLQMNSLRAEDTAVYYCARPSYEGYSSWFAYWGQGTLVTVSS VL: EIVLTQSPATLSLSPGERATLSCKASQSVDYEGEGFMNWYQQKPGQAPRLLIYTASNLESGVPARFSGSGSGTDFTLTISSLEPEDFAVYYCQQSNEDPWTFGGGTKVEIK

Biological target: T1, recombinant human BDCA2 extracellular …
Assay: SPR (Biacore), antibody captured on anti-human Fc chip, recombinant BDCA2 flowed over; small-scale batch
Description: as §1

Kd | koff | kon | Binder
1.01 nM | 0.000145 s⁻¹ | 144000 M⁻¹ s⁻¹ | NPB-303_A (antibody, V domains shown, whole antibody captured by anti-human Fc) VH: EVQLVESGGGLVKPGGSLRLSCAASGFTFSTMSWVRQAPGKRLEWVASISSGGSTYYPDSVKGRFTISRDNAKNSLYLQMNSLRAEDTAVYYCARPSYEGYSSWFAYWGQGTLVTVSS VL: EIVLTQSPATLSLSPGERATLSCKASQSVDYDGDGFMNWYQQKPGQAPRLLIYTASNLESGVPARFSGSGSGTDFTLTISSLEPEDFAVYYCQQSNEDPWTFGGGTKVEIK
4.77 nM | 0.000409 s⁻¹ | 85600 M⁻¹ s⁻¹ | NPB-303_B.E (antibody, V domains shown, whole antibody captured by anti-human Fc) VH: EVQLVESGGGLVKPGGSLRLSCAASGFTFSTMSWVRQAPGKRLEWVASISSGGSTYYPDSVKGRFTISRDNAKNSLYLQMNSLRAEDTAVYYCARPSYDAYSSWFAYWGQGTLVTVSS VL: EIVLTQSPATLSLSPGERATLSCKASQSVDYDADAFMNWYQQKPGQAPRLLIYTASNLESGVPARFSGSGSGTDFTLTISSLEPEDFAVYYCQQSNEDPWTFGGGTKVEIK
1.49 nM | 0.000159 s⁻¹ | 107000 M⁻¹ s⁻¹ | NPB-303_A.H (antibody, V domains shown, whole antibody captured by anti-human Fc) VH: EVQLVESGGGLVKPGGSLRLSCAASGFTFSTMSWVRQAPGKRLEWVASISSGGSTYYPDSVKGRFTISRDNAKNSLYLQMNSLRAEDTAVYYCARPSYEGYSSWFAYWGQGTLVTVSS VL: EIVLTQSPATLSLSPGERATLSCKASQSVDYSGSGFMNWYQQKPGQAPRLLIYTASNLESGVPARFSGSGSGTDFTLTISSLEPEDFAVYYCQQSNEDPWTFGGGTKVEIK
0.998 nM | 0.000142 s⁻¹ | 142000 M⁻¹ s⁻¹ | NPB-303_A.G (antibody, V domains shown, whole antibody captured by anti-human Fc) VH: EVQLVESGGGLVKPGGSLRLSCAASGFTFSTMSWVRQAPGKRLEWVASISSGGSTYYPDSVKGRFTISRDNAKNSLYLQMNSLRAEDTAVYYCARPSYEGYSSWFAYWGQGTLVTVSS VL: EIVLTQSPATLSLSPGERATLSCKASQSVDYDAEGFMNWYQQKPGQAPRLLIYTASNLESGVPARFSGSGSGTDFTLTISSLEPEDFAVYYCQQSNEDPWTFGGGTKVEIK
1.25 nM | 0.000144 s⁻¹ | 115000 M⁻¹ s⁻¹ | NPB-303_D (antibody, V domains shown, whole antibody captured by anti-human Fc) VH: EVQLVESGGGLVKPGGSLRLSCAASGFTFSTMSWVRQAPGKRLEWVASISSGGSTYYPDSVKGRFTISRDNAKNSLYLQMNSLRAEDTAVYYCARPSYDGYSSWFAYWGQGTLVTVSS VL: EIVLTQSPATLSLSPGERATLSCKASQSVDYEGEGFMNWYQQKPGQAPRLLIYTASNLESGVPARFSGSGSGTDFTLTISSLEPEDFAVYYCQQSNEDPWTFGGGTKVEIK
2.06 nM | 0.000193 s⁻¹ | 93900 M⁻¹ s⁻¹ | NPB-303_B (antibody, V domains shown, whole antibody captured by anti-human Fc) VH: EVQLVESGGGLVKPGGSLRLSCAASGFTFSTMSWVRQAPGKRLEWVASISSGGSTYYPDSVKGRFTISRDNAKNSLYLQMNSLRAEDTAVYYCARPSYDAYSSWFAYWGQGTLVTVSS VL: EIVLTQSPATLSLSPGERATLSCKASQSVDYDGDGFMNWYQQKPGQAPRLLIYTASNLESGVPARFSGSGSGTDFTLTISSLEPEDFAVYYCQQSNEDPWTFGGGTKVEIK
2.63 nM | 0.000286 s⁻¹ | 109000 M⁻¹ s⁻¹ | NPB-303_B.G (antibody, V domains shown, whole antibody captured by anti-human Fc) VH: EVQLVESGGGLVKPGGSLRLSCAASGFTFSTMSWVRQAPGKRLEWVASISSGGSTYYPDSVKGRFTISRDNAKNSLYLQMNSLRAEDTAVYYCARPSYDAYSSWFAYWGQGTLVTVSS VL: EIVLTQSPATLSLSPGERATLSCKASQSVDYDAEGFMNWYQQKPGQAPRLLIYTASNLESGVPARFSGSGSGTDFTLTISSLEPEDFAVYYCQQSNEDPWTFGGGTKVEIK
1.77 nM | 0.000195 s⁻¹ | 110000 M⁻¹ s⁻¹ | NPB-303_C.F (antibody, V domains shown, whole antibody captured by anti-human Fc) VH: EVQLVESGGGLVKPGGSLRLSCAASGFTFSTMSWVRQAPGKRLEWVASISSGGSTYYPDSVKGRFTISRDNAKNSLYLQMNSLRAEDTAVYYCARPSYSGYSSWFAYWGQGTLVTVSS VL: EIVLTQSPATLSLSPGERATLSCKASQSVDYEGDAFMNWYQQKPGQAPRLLIYTASNLESGVPARFSGSGSGTDFTLTISSLEPEDFAVYYCQQSNEDPWTFGGGTKVEIK
1.06 nM | 0.000138 s⁻¹ | 130000 M⁻¹ s⁻¹ | NPB-303_A.D (antibody, V domains shown, whole antibody captured by anti-human Fc; Made at small (3 mL) and large (100 mL) scale) VH: EVQLVESGGGLVKPGGSLRLSCAASGFTFSTMSWVRQAPGKRLEWVASISSGGSTYYPDSVKGRFTISRDNAKNSLYLQMNSLRAEDTAVYYCARPSYEGYSSWFAYWGQGTLVTVSS VL: EIVLTQSPATLSLSPGERATLSCKASQSVDYEGEGFMNWYQQKPGQAPRLLIYTASNLESGVPARFSGSGSGTDFTLTISSLEPEDFAVYYCQQSNEDPWTFGGGTKVEIK
1.31 nM | 0.000166 s⁻¹ | 126000 M⁻¹ s⁻¹ | NPB-303_G (antibody, V domains shown, whole antibody captured by anti-human Fc) VH: EVQLVESGGGLVKPGGSLRLSCAASGFTFSTMSWVRQAPGKRLEWVASISSGGSTYYPDSVKGRFTISRDNAKNSLYLQMNSLRAEDTAVYYCARPSYDGYSSWFAYWGQGTLVTVSS VL: EIVLTQSPATLSLSPGERATLSCKASQSVDYDAEGFMNWYQQKPGQAPRLLIYTASNLESGVPARFSGSGSGTDFTLTISSLEPEDFAVYYCQQSNEDPWTFGGGTKVEIK
1.2 nM | 0.000165 s⁻¹ | 138000 M⁻¹ s⁻¹ | NPB-303_C (antibody, V domains shown, whole antibody captured by anti-human Fc) VH: EVQLVESGGGLVKPGGSLRLSCAASGFTFSTMSWVRQAPGKRLEWVASISSGGSTYYPDSVKGRFTISRDNAKNSLYLQMNSLRAEDTAVYYCARPSYSGYSSWFAYWGQGTLVTVSS VL: EIVLTQSPATLSLSPGERATLSCKASQSVDYDGDGFMNWYQQKPGQAPRLLIYTASNLESGVPARFSGSGSGTDFTLTISSLEPEDFAVYYCQQSNEDPWTFGGGTKVEIK
3.47 nM | 0.000272 s⁻¹ | 78500 M⁻¹ s⁻¹ | NPB-303_B.H (antibody, V domains shown, whole antibody captured by anti-human Fc) VH: EVQLVESGGGLVKPGGSLRLSCAASGFTFSTMSWVRQAPGKRLEWVASISSGGSTYYPDSVKGRFTISRDNAKNSLYLQMNSLRAEDTAVYYCARPSYDAYSSWFAYWGQGTLVTVSS VL: EIVLTQSPATLSLSPGERATLSCKASQSVDYSGSGFMNWYQQKPGQAPRLLIYTASNLESGVPARFSGSGSGTDFTLTISSLEPEDFAVYYCQQSNEDPWTFGGGTKVEIK
1.89 nM | 0.000237 s⁻¹ | 125000 M⁻¹ s⁻¹ | NPB-303_C.E (antibody, V domains shown, whole antibody captured by anti-human Fc) VH: EVQLVESGGGLVKPGGSLRLSCAASGFTFSTMSWVRQAPGKRLEWVASISSGGSTYYPDSVKGRFTISRDNAKNSLYLQMNSLRAEDTAVYYCARPSYSGYSSWFAYWGQGTLVTVSS VL: EIVLTQSPATLSLSPGERATLSCKASQSVDYDADAFMNWYQQKPGQAPRLLIYTASNLESGVPARFSGSGSGTDFTLTISSLEPEDFAVYYCQQSNEDPWTFGGGTKVEIK
3.44 nM | 0.000232 s⁻¹ | 67600 M⁻¹ s⁻¹ | NPB-303_B.F (antibody, V domains shown, whole antibody captured by anti-human Fc) VH: EVQLVESGGGLVKPGGSLRLSCAASGFTFSTMSWVRQAPGKRLEWVASISSGGSTYYPDSVKGRFTISRDNAKNSLYLQMNSLRAEDTAVYYCARPSYDAYSSWFAYWGQGTLVTVSS VL: EIVLTQSPATLSLSPGERATLSCKASQSVDYEGDAFMNWYQQKPGQAPRLLIYTASNLESGVPARFSGSGSGTDFTLTISSLEPEDFAVYYCQQSNEDPWTFGGGTKVEIK
2.02 nM | 0.000197 s⁻¹ | 97400 M⁻¹ s⁻¹ | NPB-303_C.H (antibody, V domains shown, whole antibody captured by anti-human Fc) VH: EVQLVESGGGLVKPGGSLRLSCAASGFTFSTMSWVRQAPGKRLEWVASISSGGSTYYPDSVKGRFTISRDNAKNSLYLQMNSLRAEDTAVYYCARPSYSGYSSWFAYWGQGTLVTVSS VL: EIVLTQSPATLSLSPGERATLSCKASQSVDYSGSGFMNWYQQKPGQAPRLLIYTASNLESGVPARFSGSGSGTDFTLTISSLEPEDFAVYYCQQSNEDPWTFGGGTKVEIK
1.74 nM | 0.000187 s⁻¹ | 107000 M⁻¹ s⁻¹ | NPB-303_F (antibody, V domains shown, whole antibody captured by anti-human Fc) VH: EVQLVESGGGLVKPGGSLRLSCAASGFTFSTMSWVRQAPGKRLEWVASISSGGSTYYPDSVKGRFTISRDNAKNSLYLQMNSLRAEDTAVYYCARPSYDGYSSWFAYWGQGTLVTVSS VL: EIVLTQSPATLSLSPGERATLSCKASQSVDYEGDAFMNWYQQKPGQAPRLLIYTASNLESGVPARFSGSGSGTDFTLTISSLEPEDFAVYYCQQSNEDPWTFGGGTKVEIK
1.49 nM | 0.000183 s⁻¹ | 123000 M⁻¹ s⁻¹ | NPB-303_A.E (antibody, V domains shown, whole antibody captured by anti-human Fc) VH: EVQLVESGGGLVKPGGSLRLSCAASGFTFSTMSWVRQAPGKRLEWVASISSGGSTYYPDSVKGRFTISRDNAKNSLYLQMNSLRAEDTAVYYCARPSYEGYSSWFAYWGQGTLVTVSS VL: EIVLTQSPATLSLSPGERATLSCKASQSVDYDADAFMNWYQQKPGQAPRLLIYTASNLESGVPARFSGSGSGTDFTLTISSLEPEDFAVYYCQQSNEDPWTFGGGTKVEIK
1.41 nM | 0.000164 s⁻¹ | 116000 M⁻¹ s⁻¹ | NPB-303_A.F (antibody, V domains shown, whole antibody captured by anti-human Fc) VH: EVQLVESGGGLVKPGGSLRLSCAASGFTFSTMSWVRQAPGKRLEWVASISSGGSTYYPDSVKGRFTISRDNAKNSLYLQMNSLRAEDTAVYYCARPSYEGYSSWFAYWGQGTLVTVSS VL: EIVLTQSPATLSLSPGERATLSCKASQSVDYEGDAFMNWYQQKPGQAPRLLIYTASNLESGVPARFSGSGSGTDFTLTISSLEPEDFAVYYCQQSNEDPWTFGGGTKVEIK
